Paper PMC12784962, “https://orcid.org/0000-0002-3633-7823 Baral Joydeep Department of Bioscience and Biotechnology, Indian Institute of Technology Kharagpur, West Midnapore 721302, West Bengal, India”

T1: mKu WT (Mycobacterium tuberculosis, UniProt P9WKD9 1-273)
T1 sequence: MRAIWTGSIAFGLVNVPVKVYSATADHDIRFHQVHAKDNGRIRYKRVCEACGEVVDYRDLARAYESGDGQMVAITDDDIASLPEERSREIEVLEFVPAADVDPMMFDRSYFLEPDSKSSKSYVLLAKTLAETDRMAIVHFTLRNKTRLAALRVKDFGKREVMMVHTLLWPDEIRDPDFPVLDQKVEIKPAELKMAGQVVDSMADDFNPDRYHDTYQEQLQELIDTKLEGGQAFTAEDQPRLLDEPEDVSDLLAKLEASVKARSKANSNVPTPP

B1: shDNA (21-mer/34-mer hairpin) (structured_DNA)
DNA 1: GTTTTTAGTTTATTGGGCGCG
DNA 2: CGCGCCCAGCTTTCCCAGCTAATAAACTAAAAAC
B2: 50-bp Cy3/Cy5 FRET dsDNA (dsDNA)
DNA 1: CCACACTGTCGCCGCCGACGTCTGTGATATGGCGTTGTTGCGCCGCCGAC
DNA 2: GTCGGCGGCGCAACAACGCCATATCACAGACGTCGGCGGCGACAGTGTGG

Experiments:
mKu WT [1] = target: T1, mKu WT; experiment: cryo-EM; 5 uM mKu dimer and 5 uM DNA; supercomplex; EMSA: 25 mM Tris-Cl pH 7.5, 100 mM NaCl, 30 mM KCl, 0.1 mM EDTA, 0.05% Triton X-100, BSA, 2% glycerol, 2 mM DTT, 25 C, 30 min; FRET: 10 mM PBS pH 7.4, 25 C; cryo-EM: 4 C, 30 min; conditions: protein: recombinant; pET16b); chain copies: 2; hairpin at one end, other end blunt
mKu WT [2] = target: T1, mKu WT; experiment: FRET; 250 nM DNA, 0-305 nM mKu; saturating synapsis signal; EMSA: 25 mM Tris-Cl pH 7.5, 100 mM NaCl, 30 mM KCl, 0.1 mM EDTA, 0.05% Triton X-100, BSA, 2% glycerol, 2 mM DTT, 25 C, 30 min; FRET: 10 mM PBS pH 7.4, 25 C; cryo-EM: 4 C, 30 min; conditions: protein: recombinant; pET16b); chain copies: 2; label: S4: 5'-Cy5, 3'-Cy3; complement (S5): 5'-Cy3, 3'-Cy5; blunt

Binder | binding result (mKu WT [1]) | binding result (mKu WT [2])
B1 | binds | –
B2 | – | binds
